From publication PMC11900225, “Deletions in Glial Fibrillary Acidic Protein Leading to Alterations in Intermediate Filament Assembly and Network Formation” (International Journal of Molecular Sciences, 2025) come the findings set out here.

The target in data set [1] is T1, Glial fibrillary acidic protein (GFAP), full-length wild type, human GFAPα (human, UniProt P14136-1 1-432).
T1 construct: Glial fibrillary acidic protein, major isoform GFAPα, human, full length, cDNA in pET23b; Expressed from pET23b; also called WT GFAP; WT
The data set is described as follows: high-speed sedimentation assay of assembled filaments; assembly mixture layered on a 0.85 M sucrose cushion in assembly buffer, 80,000 x g, 20 min, 20 °C; supernatant and pellet by SDS-PAGE and Coomassie; efficiency is the percent of total protein in the pellet. To be noted: both partners purified.

Data set [2] concerns the molecule itself. Put plainly: low-speed sedimentation assay of assembled filaments; assembly mixture centrifuged at 1000 x g for 5 min at room temperature; supernatant and pellet by SDS-PAGE and Coomassie; monitors filament aggregation.
Data set [3] concerns the molecule itself. Put plainly: high-speed sedimentation assay of assembled filaments; assembly mixture layered on a 0.85 M sucrose cushion in assembly buffer, 80,000 x g, 20 min, 20 °C; supernatant and pellet by SDS-PAGE and Coomassie; efficiency is the percent of total protein in the pellet.
Data set [4] concerns the target T1, Glial fibrillary acidic protein (GFAP), …. The data set is described as follows: in vitro filament assembly with negative-stain transmission electron microscopy; 0.2 mg/mL GFAP dialysed stepwise out of 6 M urea into low-salt buffer, then into assembly buffer (10 mM Tris-HCl, 50 mM NaCl, 1 mM DTT, pH 7) at 34–36 °C for 12–16 h; stained with 1% uranyl acetate; mutants alone or coassembled with WT at stated proportions. Particulars: both partners purified.

B1: ΔEx5 GFAP (natural protein)
chain: not shown
notes: Human GFAPα with an in-frame deletion of 42 residues, amino acids 261-302 (skipping of exon 5, an Alexander disease splice site mutation); Expressed from pET23b; no tag named; also called ΔEx5 mutant; ΔEx5 deletion mutant
On to B1, for which the binding result in data set [1] was “binds”. Besides, the “percent in the pellet (low-speed sedimentation)” value (from here on “percent in the pellet”) in data set [2] worked out at 69%.

B2: CΔ121 GFAP (domain or fragment, human, UniProt P14136 1-311, looked up)
chain: MERRRITSAARRSYVSSGEMMVGGLAPGRRLGPGTRLSLARMPPPLPTRVDFSLAGALNAGFKETRASERAEMMELNDRFASYIEKVRFLEQQNKALAAELNQLRAKEPTKLADVYQAELRELRLRLDQLTANSARLEVERDNLAQDLATVRQKLQDETNLRLEAENNLAAYRQEADEATLARLDLERKIESLEEEIRFLRKIHEEEVRELQEQLARQQVHVELDVAKPDLTAALKEIRTQYEAMASSNMHEAEEWYRSKFADLTDAAARNAELLRQAKHEANDYRRQLQSLTCDLESLRGTNESLERQMR
notes: Human GFAPα, the initial 311 residues; truncation caused by a nonsense Alexander disease mutation; Expressed from pET23b; no tag named
Take B2: in data set [2], the “percent in the pellet” value stood at 68%.

B3: CΔ92 GFAP (domain or fragment, human, UniProt P14136 1-340, looked up)
chain: MERRRITSAARRSYVSSGEMMVGGLAPGRRLGPGTRLSLARMPPPLPTRVDFSLAGALNAGFKETRASERAEMMELNDRFASYIEKVRFLEQQNKALAAELNQLRAKEPTKLADVYQAELRELRLRLDQLTANSARLEVERDNLAQDLATVRQKLQDETNLRLEAENNLAAYRQEADEATLARLDLERKIESLEEEIRFLRKIHEEEVRELQEQLARQQVHVELDVAKPDLTAALKEIRTQYEAMASSNMHEAEEWYRSKFADLTDAAARNAELLRQAKHEANDYRRQLQSLTCDLESLRGTNESLERQMREQEERHVREAASYQEALARLEEEGQSLKD
notes: Human GFAPα with 92 residues deleted from the C-terminus (CΔX is the number of residues deleted from the C-terminus); fragment potentially generated by calpain cleavage at 337SLKD340; Expressed from pET23b; no tag named
In the case of B3, the binding result in data set [3] is reported as “binds”.

B4: ΔEx4 GFAP (natural protein)
chain: not shown
notes: Expressed from pET23b; no tag named; also called ΔEx4 mutant
For B4, the binding result in data set [3] and in data set [4] was “binds” each time.

B5: CΔ207 GFAP (domain or fragment, human, UniProt P14136 1-225, looked up)
chain: MERRRITSAARRSYVSSGEMMVGGLAPGRRLGPGTRLSLARMPPPLPTRVDFSLAGALNAGFKETRASERAEMMELNDRFASYIEKVRFLEQQNKALAAELNQLRAKEPTKLADVYQAELRELRLRLDQLTANSARLEVERDNLAQDLATVRQKLQDETNLRLEAENNLAAYRQEADEATLARLDLERKIESLEEEIRFLRKIHEEEVRELQEQLARQQVHVELD
notes: Human GFAPα, the first 225 amino acids; N-terminal fragment produced by caspase-6 cleavage at 222VELD225; Expressed from pET23b; no tag named
In the case of B5, the “percent in the pellet” value in data set [2] worked out at 91%.
